Paper doi:10.1101/2025.11.17.688653

Biological target: mouse PIEZO1-R2482H (mouse) (UniProt E2JF22)
Assay: cryo-EM structure

stoichiometry N: 3
Substance: mouse PIEZO1-R2482H, E2JF22 1-2547
